Reference: FireProtDB (doi:10.1021/bi051692c)

B1: Band 3 anion transport protein, P02730 (parent)
chain: MEELQDDYEDMMEENLEQEEYEDPDIPESQMEEPAAHDTEATATDYHTTSHPGTHKVYVELQELVMDEKNQELRWMEAARWVQLEENLGENGAWGRPHLSHLTFWSLLELRRVFTKGTVLLDLQETSLAGVANQLLDRFIFEDQIRPQDREELLRALLLKHSHAGELEALGGVKPAVLTRSGDPSQPLLPQHSSLETQLFCEQGDGGTEGHSPSGILEKIPPDSEATLVLVGRADFLEQPVLGFVRLQEAAELEAVELPVPIRFLFVLLGPEAPHIDYTQLGRAAATLMSERVFRIDAYMAQSRGELLHSLEGFLDCSLVLPPTDAPSEQALLSLVPVQRELLRRRYQSSPAKPDSSFYKGLDLNGGPDDPLQQTGQLFGGLVRDIRRRYPYYLSDITDAFSPQVLAAVIFIYFAALSPAITFGGLLGEKTRNQMGVSELLISTAVQGILFALLGAQPLLVVGFSGPLLVFEEAFFSFCETNGLEYIVGRVWIGFWLILLVVLVVAFEGSFLVRFISRYTQEIFSFLISLIFIYETFSKLIKIFQDHPLQKTYNYNVLMVPKPQGPLPNTALLSLVLMAGTFFFAMMLRKFKNSSYFPGKLRRVIGDFGVPISILIMVLVDFFIQDTYTQKLSVPDGFKVSNSSARGWVIHPLGLRSEFPIWMMFASALPALLVFILIFLESQITTLIVSKPERKMVKGSGFHLDLLLVVGMGGVAALFGMPWLSATTVRSVTHANALTVMGKASTPGAAAQIQEVKEQRISGLLVAVLVGLSILMEPILSRIPLAVLFGIFLYMGVTSLSGIQLFDRILLLFKPPKYHPDVPYVKRVKTWRMHLFTGIQIICLAVLWVVKSTPASLALPFVLILTVPLRRVLLPLIFRNVELQCLDADDAKATFDEEEGRDEYDEVAMPV

Variants of: B1
Conditions: Homo sapiens, reversible: No, structure 1HYN, whole UniProt chain shown; for denaturant midpoint (higher = more stable): 24 °C, Urea, Fluorescence, sodium phosphate sodium borate 50 mM 50 mM, sodium chloride 70 mM; for Tm / change of melting temperature, mutant - wild type (higher = more stable): Thermal, sodium phosphate 10 mM
[1] = pH 7, CD, sodium fluoride 50 mM
[2] = pH 7.5, DSC, sodium chloride 50 mM

Row | Variant | denaturant midpoint (higher = more stable) (pH 7) | Tm [1] | change of melting temperature, mutant - wild type (higher = more stable) [1] | Tm [2] | change of melting temperature, mutant - wild type (higher = more stable) [2]
1 | G130R | 4.85 M | 68.7 °C | -0.3 °C | 65.5 °C | -0.7 °C
2 | K56E | – | 67.7 °C | -1.3 °C | 66.5 °C | 0.3 °C
3 | P327R | 4.56 M | 64 °C | -5 °C | – | –
4 | E40K | 4.73 M | – | – | 64.9 °C | -1.3 °C
